This series relates to Nc1nc(=O)[nH]cc1F. Description: steady-state kinetics. It counts as biochemical, Saccharomyces cerevisiae. Conditions: Zn2+.

The values below come from PMC3272785.

The Km is the concentration of substrate that gives half-maximal velocity. A word on the kcat: it is the number of substrate molecules converted per active site and unit of time at saturation. A word on the kcat/Km: it is the second-order rate constant that governs catalysis at low substrate concentration.

“yeast cytosine deaminase (yCD) (Saccharomyces cerevisiae S288C; E64A)”: the Michaelis constant (Km) turned out to be 33 ± 6 mM, the catalytic constant (kcat) came to 7.3e-05 ± 6e-06 s⁻¹ and the specificity constant (kcat/Km) was found to be 0.0022 M⁻¹ s⁻¹.

For “yeast cytosine deaminase (yCD) (Saccharomyces cerevisiae S288C; E64D)”, the Km came out at 19 ± 6 mM, the turnover number (kcat) worked out at 0.0051 ± 0.001 s⁻¹ and the kcat/Km was found to be 0.26 M⁻¹ s⁻¹.
